Data on 6 molecules can be found in paper PMC10929410.

The chains are these.
B1: native FlaB (flagellin type B, glycosylated) of Pseudomonas aeruginosa strain PAO1 (natural protein)
chain: MALTVNTNIASLNTQRNLNASSNDLNTSLQRLTTGYRINSAKDDAAGLQISNRLSNQISGLNVATRNANDGISLAQTAEGALQQSTNILQRIRDLALQSANGSNSDADRAALQKEVAAQQAELTRISDTTTFGGRKLLDGSFGTTSFQVGSNAYETIDISLQNASASAIGSYQVGSNGAGTVASVAGTATASGIASGTVNLVGGGQVKNIAIAAGDSAKAIAEKMDGAIPNLSARARTVFTADVSGVTGGSLNFDVTVGSNTVSLAGVTSTQDLADQLNSNSSKLGITASINDKGVLTITSATGENVKFGAQTGTATAGQVAVKVQGSDGKFEAAAKNVVAAGTAATTTIVTGYVQLNSPTAYSVSGTGTQASQVFGNASAAQKSSVASVDISTADGAQNAIAVVDNALAAIDAQRADLGAVQNRFKNTIDNLTNISENATNARSRIKDTDFAAETAALSKNQVLQQAGTAILAQANQLPQAVLSLLR
modifications: simple O-glycan without rhamnose, attached via deoxyhexosamine
B2: deglycosylated native FlaB (natural protein)
chain: MALTVNTNIASLNTQRNLNASSNDLNTSLQRLTTGYRINSAKDDAAGLQISNRLSNQISGLNVATRNANDGISLAQTAEGALQQSTNILQRIRDLALQSANGSNSDADRAALQKEVAAQQAELTRISDTTTFGGRKLLDGSFGTTSFQVGSNAYETIDISLQNASASAIGSYQVGSNGAGTVASVAGTATASGIASGTVNLVGGGQVKNIAIAAGDSAKAIAEKMDGAIPNLSARARTVFTADVSGVTGGSLNFDVTVGSNTVSLAGVTSTQDLADQLNSNSSKLGITASINDKGVLTITSATGENVKFGAQTGTATAGQVAVKVQGSDGKFEAAAKNVVAAGTAATTTIVTGYVQLNSPTAYSVSGTGTQASQVFGNASAAQKSSVASVDISTADGAQNAIAVVDNALAAIDAQRADLGAVQNRFKNTIDNLTNISENATNARSRIKDTDFAAETAALSKNQVLQQAGTAILAQANQLPQAVLSLLR
modifications: treated with trifluoromethanesulfonic acid to remove the O-glycans
B3: recombinant FlaB (non-glycosylated) (natural protein)
chain: MALTVNTNIASLNTQRNLNASSNDLNTSLQRLTTGYRINSAKDDAAGLQISNRLSNQISGLNVATRNANDGISLAQTAEGALQQSTNILQRIRDLALQSANGSNSDADRAALQKEVAAQQAELTRISDTTTFGGRKLLDGSFGTTSFQVGSNAYETIDISLQNASASAIGSYQVGSNGAGTVASVAGTATASGIASGTVNLVGGGQVKNIAIAAGDSAKAIAEKMDGAIPNLSARARTVFTADVSGVTGGSLNFDVTVGSNTVSLAGVTSTQDLADQLNSNSSKLGITASINDKGVLTITSATGENVKFGAQTGTATAGQVAVKVQGSDGKFEAAAKNVVAAGTAATTTIVTGYVQLNSPTAYSVSGTGTQASQVFGNASAAQKSSVASVDISTADGAQNAIAVVDNALAAIDAQRADLGAVQNRFKNTIDNLTNISENATNARSRIKDTDFAAETAALSKNQVLQQAGTAILAQANQLPQAVLSLLR

The test has as its target human Toll-like receptor 5 on HEK-Blue-hTLR5 reporter cells (human) (UniProt O60602).
Sequence of UniProt O60602 (O60602 21-858): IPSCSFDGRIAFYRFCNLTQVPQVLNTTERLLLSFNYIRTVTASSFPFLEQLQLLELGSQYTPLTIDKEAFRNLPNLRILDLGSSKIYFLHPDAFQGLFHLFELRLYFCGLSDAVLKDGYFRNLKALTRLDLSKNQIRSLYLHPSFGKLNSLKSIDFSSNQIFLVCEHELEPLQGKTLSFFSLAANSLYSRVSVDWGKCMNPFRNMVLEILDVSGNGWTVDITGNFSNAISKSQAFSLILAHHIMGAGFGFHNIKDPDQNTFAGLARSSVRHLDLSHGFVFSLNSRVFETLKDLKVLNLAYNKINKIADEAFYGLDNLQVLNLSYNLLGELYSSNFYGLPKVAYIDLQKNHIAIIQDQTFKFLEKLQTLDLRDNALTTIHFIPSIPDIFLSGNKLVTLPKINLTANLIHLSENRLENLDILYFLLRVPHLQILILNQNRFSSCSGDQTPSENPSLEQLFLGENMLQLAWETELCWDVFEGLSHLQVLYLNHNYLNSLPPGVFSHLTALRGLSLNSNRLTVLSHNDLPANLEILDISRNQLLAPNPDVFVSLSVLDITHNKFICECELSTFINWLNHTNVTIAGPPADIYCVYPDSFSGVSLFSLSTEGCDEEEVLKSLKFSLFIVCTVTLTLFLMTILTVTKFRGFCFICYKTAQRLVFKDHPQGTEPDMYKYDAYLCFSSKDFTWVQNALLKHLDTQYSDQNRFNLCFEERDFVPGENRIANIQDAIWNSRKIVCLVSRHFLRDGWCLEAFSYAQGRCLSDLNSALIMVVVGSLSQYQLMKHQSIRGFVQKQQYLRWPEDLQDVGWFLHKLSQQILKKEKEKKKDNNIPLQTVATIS
The molecule “deglycosylated native FlaA (from UniProt P21184 1-394) (natural protein)” came in with an EC50 of TLR5 activation (SEAP, OD 620 nm) in HEK-Blue-hTLR5 reporter cells, 10 pg/mL to 10 µg/mL, 24 h of 0.291 µg/mL.

In turn, “native FlaA (flagellin type A, glycosylated) of Pseudomonas aeruginosa strain PAK (from UniProt P21184 1-394) (natural protein)” yielded an EC50 of TLR5 activation (SEAP, OD 620 nm) in HEK-Blue-hTLR5 reporter cells, 10 pg/mL to 10 µg/mL, 24 h of 0.0021 µg/mL. Still for that read-out and setting: the value for “recombinant FlaA (non-glycosylated) (from UniProt P21184 1-394) (natural protein)” was 0.0415 µg/mL; that for B1 was 0.0444 µg/mL. Turning to B2, the EC50 of TLR5 activation (SEAP, OD 620 nm) in HEK-Blue-hTLR5 reporter cells, 10 pg/mL to 10 µg/mL, 24 h; the sentence prints the label dnFlaA, taken as dnFlaB from the context of Fig. 4D was 0.442 µg/mL.

B3 had an EC50 of TLR5 activation (SEAP, OD 620 nm) in HEK-Blue-hTLR5 reporter cells, 10 pg/mL to 10 µg/mL, 24 h of 104.
